Data taken from patent US20160304625A1.

Biological target: mIgM proximal domain peptide conjugated to keyhole limpet hemocyanin (human)
Experiment: ELISA direct binding, mIgM-PD-KLH

An ELISA reading of 0.1 was found for Control mAb (antibody) in this work.
